These results are taken from US12662542B2, “Agnostic anti-mullerian hormone receptor binding peptides” (OVARES D LLC, priority 2019, dated 2026).

In data set [1] the target is T1, AMH-R2 (Homo sapiens, UniProt Q16671).
T1 construct: GST
T1 sequence (Q16671 18-573): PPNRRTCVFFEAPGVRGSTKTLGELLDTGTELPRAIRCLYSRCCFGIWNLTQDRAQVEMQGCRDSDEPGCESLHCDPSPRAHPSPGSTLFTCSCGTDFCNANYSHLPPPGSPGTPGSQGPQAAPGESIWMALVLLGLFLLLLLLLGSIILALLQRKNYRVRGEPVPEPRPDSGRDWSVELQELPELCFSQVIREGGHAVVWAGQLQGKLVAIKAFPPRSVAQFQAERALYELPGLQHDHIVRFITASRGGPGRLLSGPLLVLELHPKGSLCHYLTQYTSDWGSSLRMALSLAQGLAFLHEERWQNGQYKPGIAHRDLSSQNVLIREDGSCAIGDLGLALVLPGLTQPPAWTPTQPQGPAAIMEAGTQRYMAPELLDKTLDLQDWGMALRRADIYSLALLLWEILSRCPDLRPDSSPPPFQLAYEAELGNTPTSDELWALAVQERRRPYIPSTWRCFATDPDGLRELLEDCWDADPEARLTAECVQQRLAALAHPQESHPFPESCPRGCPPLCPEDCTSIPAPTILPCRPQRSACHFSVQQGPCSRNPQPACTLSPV
As to the kind of experiment: peptide microarray assay identifying AMH receptor binding peptides. As to conditions: microarray signal; for Average: average of Rep 1 and Rep 2; for Rep 1: replicate 1; for Rep 2: replicate 2. The source says:
In view of the several actions of AMH, and because of the need for AMH receptor agonists and/or antagonist that can modify the activity of one or more of the AMH receptors, provided herein are AMH receptor binding peptides that modulate the activity of the AMH receptor, as described herein. Briefly, it was hypothesized that peptides that bind AMH receptors could be generated based on the amino acid sequence of the AMH biding site of the AMH-R2 receptor. More particularly, based on the amino acid sequence of the AMH-R2 that is responsible for binding AMH, as well as the amino acid sequences of AMH-R2 that are near the AMH binding site, a peptide microarray was used to identify candidate AMH receptor binding peptides that can activate AMH-R2 and thus produce similar effects to native AMH.
To identify candidate AMH receptor binding peptides described herein, a custom peptide library composed of replicate copies of a 124,000 17 mer peptide microarray was synthesized (Arizona State University, Tempe, AZ) using the method described in Legutki, J. B., et al., Scalable high-density peptide arrays for comprehensive health monitoring. Nat Commun., volume 5, 4785 (2014). The slide was assembled into an Arrayit 4×24 Hybridization Cassette and each peptide microarray was blocked with 150 uL of 30% human sera in 1×PBST for 1 hour at room temperature with shaking After blocking, the slide was washed 3× with 1×PBST using a Biotek plate washer prior to addition of protein targets. Each protein sample was diluted in 30% human sera in 1×PBST and 150 uL of each sample was dispensed into the appropriate wells in the cassette and incubated for 1 hour at 37 C with rotation at 300 rpm on a ThermoMix™ 500 heater/shaker.
After incubation, the cassette was dismantled, the slide washed 3 times in 1×PBST, rinsed three times with distilled, deionized water (ddH2O), and dried in a centrifuge for 2 minutes at 800 rpm. Secondary antibody (anti-GST, GE Healthcare™) was prepared at 10 nM in 30% human sera in 1×PBST and dispensed onto the slide. The slide was incubated for 1 hour at 37 C with rotation at 300 rpm as before. The slide was then washed 3 times in 1×PBST, rinsed 3 times with ddH2O, and dried in a centrifuge for 2 minutes at 800 rpm. Detection antibody, 10 nM Alexa Flour 647 donkey anti-goat IgG (H+L) (ThermoFisher Scientific™), was prepared in 0.75% casein in 1×PBST and dispensed onto the slide. The slide was covered and incubated for 1 hour at 37 C with rotation as before. The slide was washed 3 times in 1×PBST, rinsed 3 times with ddH2O, and dried in a centrifuge for 2 minutes at 800 rpm. The slide was scanned on an Innopsys™ Inoscan 910AL scanner and the resulting TIFF files were analyzed using the Genepix™ Pro 6.0 software. Data files were exported and analyzed using Microsoft Excel™ and JMP™ software.

Data set [2] concerns granulosa cells (GCs). Kind of data set: Cell Counting Kit-8 (CCK-8) proliferation and cytotoxicity assay. Format: cell-based, human. The protocol: GCs were isolated at the time of oocyte retrieval from three IVF/ICSI patients with tubal factor infertility as previously reported. Follicular aspirates were centrifuged at 900×g at room temperature. Blood contaminants were removed from GCs by Histopaque™ 1077 (Sigma-Aldrich™, St. Louis, MO, USA) gradient centrifugation at 800×g for 20 min at room temperature. The GC pellet was resuspended in a 20-ml volume of medium [Dulbecco's modified Eagle's medium/Ham's Nutrient Mixture F-12 (Gibco, Thermo Fisher Scientific, Inc., Waltham, MA, USA) with 10% fetal bovine serum (make) and washed by a further 10-min centrifugation at 500×g. The GC pellet was then resuspended in 1 ml GC preparation medium containing 0.02% (w/v) EDTA and gentle repeated pipetting was performed to break up any cellular clumps. Following further washing, the cell stock was resuspended in the GC culture medium. The cells were seeded in nine-well cell culture plates at a density of 100,000 cells/well in medium and incubated for 24 hours with PBS (control), the NegAMHR2BP (SEQ ID NO: 4), or AMHR2BP (SEQ ID NO: 1).
For determination of cytotoxicity of the novel AMHR2BP (SEQ ID NO: 1), a Cell Counting Kit-8 (CCK-8) proliferation and cytotoxicity assay was used. CCK-8 is a as a sensitive colorimetric assay where Dojindo's highly water-soluble tetrazolium salt is reduced by dehydrogenase activities in cells. Living cells reduce the salt, producing a yellow-color formazan dye, which is soluble in the culture media. The amount of dye, generated by the activities of dehydrogenases in GCs, is directly proportional to the number of living cells. CCK-8 detection sensitivity is very high. We tested the following: (a) AMHR2BP (SEQ ID NO: 1) concentrations: 20 μg/ml, 50 μg/ml, 80 μg/ml, in addition to (b) NegAMHR2BP (SEQ ID NO: 4) 80 μg/ml, and (c) untreated cells (control).
On the technique in general: Tetrazolium assays rely on reduction of a dye to a coloured formazan, in cell work by metabolically active cells.

Square brackets hold non-standard residues; d marks the D form. Ends that are not written are not given here. Peptide text beside a SMILES is read from it.

Turning to “kGGYSNAYkHNPrVlGS ([dK]GGYSNAY[dK]HNP[dR]V[dL]GS) [SEQ ID NO: 7]”, in data set [1], the Average turned out to be 65425, the “Rep 1” value amounted to 65521 and the “Rep 2” value is given as 65329.
In the case of “GlQwSFANGQwrGalSG (G[dL]Q[dW]SFANGQ[dW][dR]G[dA][dL]SG) [SEQ ID NO: 12]”, in data set [1], the Average is given as 63783, the “Rep 1” value was 64623 and the “Rep 2” value stood at 62943.
For “GGrSVSANlQrErkVaG (GG[dR]SVSAN[dL]Q[dR]E[dR][dK]V[dA]G) [SEQ ID NO: 19]”, in that order: 56883, 55679 and 58087.
On to `CC(C)C[C@@H](NC(=O)[C@@H](C)NC(=O)[C@@H](CCCNC(=N)N)NC(=O)[C@H](CCC(N)=O)NC(=O)[C@H](CC(N)=O)NC(=O)[C@@H](C)NC(=O)[C@H](CC(N)=O)NC(=O)[C@H](C)NC(=O)[C@H](Cc1ccccc1)NC(=O)[C@H](Cc1c[nH]cn1)NC(=O)[C@@H](CCCCN)NC(=O)[C@H](CC(N)=O)NC(=O)[C@H](CO)NC(=O)[C@@H](C)NC(=O)CNC(=O)[C@@H](Cc1c[nH]c2ccccc12)NC(=O)[C@H](N)CCCNC(=N)N)C(=O)O` [SEQ ID NO: 4, rwGaSNkHFANaNQral] (H-[dR][dW]G[dA]SN[dK]HFAN[dA]NQ[dR][dA][dL]-OH; N-terminus and C-terminus assumed), for which the GC toxicity result in data set [2] (80 μg/ml) is “low GC toxicity”.
Turning to “GlYwSAYNPwrHValaS (G[dL]Y[dW]SAYNP[dW][dR]HV[dA][dL][dA]S) [SEQ ID NO: 18]”, in data set [1], the Average stood at 59177, the “Rep 1” value amounted to 60848 and the “Rep 2” value was 57506.
On the same counts, the results for “YwGwSHAkaNQFPNrla (Y[dW]G[dW]SHA[dK][dA]NQFPN[dR][dL][dA]) [SEQ ID NO: 3]” are 65484, 65502 and 65465.
For “EGlQSSAYNNYwrklVa (EG[dL]QSSAYNNY[dW][dR][dK][dL]V[dA]) [SEQ ID NO: 17]”, in that order: 61198, 60241 and 62155.
`CC(C)C[C@@H](NC(=O)[C@@H](C)NC(=O)[C@@H](NC(=O)CNC(=O)[C@H](CO)NC(=O)[C@@H](NC(=O)[C@@H](CCCNC(=N)N)NC(=O)[C@H](Cc1ccccc1)NC(=O)[C@H](CCC(N)=O)NC(=O)[C@H](CC(N)=O)NC(=O)[C@H](Cc1ccc(O)cc1)NC(=O)[C@H](C)NC(=O)[C@H](CC(N)=O)NC(=O)[C@H](CO)NC(=O)CNC(=O)[C@@H](N)C(C)C)C(C)C)C(C)C)C(=O)N[C@@H](CO)C(=O)O` [SEQ ID NO: 1, VGSNAYNQFrVSGValS] (H-VGSNAYNQF[dR]VSGV[dA][dL]S-OH) returned a GCs considered lifeless in data set [2] (20 μg/ml) of 23%. Besides, the “GCs that ceased function and were considered lifeless” value in data set [2] (80 μg/ml) is given as 74%.
For the compound “NGrSQAHNlrkaGValS (NG[dR]SQAHN[dL][dR][dK][dA]GV[dA][dL]S) [SEQ ID NO: 15]”, in data set [1], the Average is reported as 61488, the “Rep 1” value is 62940 and the “Rep 2” value is listed as 60035.
“VGPSVAYNYrVSGValG (VGPSVAYNY[dR]VSGV[dA][dL]G) [SEQ ID NO: 6]”: in data set [1], the Average stood at 65427, the “Rep 1” value was 65462 and the “Rep 2” value is on record as 65391.
Take “FNGPSArNFYrHDVaVS (FNGPSA[dR]NFY[dR]HDV[dA]VS) [SEQ ID NO: 14]”: in data set [1], the Average is listed as 61835, the “Rep 1” value was found to be 65284 and the “Rep 2” value is given as 58385.
For “DGlGSVlArkNrrDaVl (DG[dL]GSV[dL]A[dR][dK]N[dR][dR]D[dA]V[dL]) [SEQ ID NO: 5]”, in that order: 65453, 65431 and 65475.
Consider “VGwSFAPNGYrlSGVlG (VG[dW]SFAPNGY[dR][dL]SGV[dL]G) [SEQ ID NO: 9]”, for which, in data set [1], the Average was determined as 65165, the “Rep 1” value was determined as 65176 and the “Rep 2” value is recorded as 65153.
In the case of “GSwSGAHNFrkSGVlSG (GS[dW]SGAHNF[dR][dK]SGV[dL]SG) [SEQ ID NO: 11]”, in data set [1], the Average worked out at 64458, the “Rep 1” value is 65128 and the “Rep 2” value came to 63787.
On the same counts, the results for “rGSYSNlFANSGErVGV ([dR]GSYSN[dL]FANSGE[dR]VGV) [SEQ ID NO: 13]” are 63774, 63996 and 63551.
Take “rGrSQAYNErSGValSG ([dR]G[dR]SQAYNE[dR]SGV[dA][dL]SG) [SEQ ID NO: 10]”: in data set [1], the Average was determined as 64591, the “Rep 1” value was found to be 63931 and the “Rep 2” value amounted to 65250.
Consider “wHGwSGANlFPYrSGVS ([dW]HG[dW]SGAN[dL]FPY[dR]SGVS) [SEQ ID NO: 8]”, for which, in data set [1], the Average was found to be 65335, the “Rep 1” value was 65158 and the “Rep 2” value worked out at 65511.
Regarding “YGFPSArVNrYwNrHDa (YGFPSA[dR]VN[dR]Y[dW]N[dR]HD[dA]) [SEQ ID NO: 16]”, in data set [1], the Average came out at 61418, the “Rep 1” value amounted to 60363 and the “Rep 2” value amounted to 62472.
For “kGSNArkNrrDaSGVal ([dK]GSNA[dR][dK]N[dR][dR]D[dA]SGV[dA][dL]) [SEQ ID NO: 20]”, in that order: 47876, 52284 and 43467.
